# Laboratory results: US20260250418A1 (BIOCYTOGEN PHARMACEUTICALS BEIJING, published 2026)
# T1: His-tagged dog HER3 protein (dHER3, SEQ ID NO: 45) (dog, UniProt P21860 20-642 (human entry))
# T1 construct: not shown: His tag
# T1 chain: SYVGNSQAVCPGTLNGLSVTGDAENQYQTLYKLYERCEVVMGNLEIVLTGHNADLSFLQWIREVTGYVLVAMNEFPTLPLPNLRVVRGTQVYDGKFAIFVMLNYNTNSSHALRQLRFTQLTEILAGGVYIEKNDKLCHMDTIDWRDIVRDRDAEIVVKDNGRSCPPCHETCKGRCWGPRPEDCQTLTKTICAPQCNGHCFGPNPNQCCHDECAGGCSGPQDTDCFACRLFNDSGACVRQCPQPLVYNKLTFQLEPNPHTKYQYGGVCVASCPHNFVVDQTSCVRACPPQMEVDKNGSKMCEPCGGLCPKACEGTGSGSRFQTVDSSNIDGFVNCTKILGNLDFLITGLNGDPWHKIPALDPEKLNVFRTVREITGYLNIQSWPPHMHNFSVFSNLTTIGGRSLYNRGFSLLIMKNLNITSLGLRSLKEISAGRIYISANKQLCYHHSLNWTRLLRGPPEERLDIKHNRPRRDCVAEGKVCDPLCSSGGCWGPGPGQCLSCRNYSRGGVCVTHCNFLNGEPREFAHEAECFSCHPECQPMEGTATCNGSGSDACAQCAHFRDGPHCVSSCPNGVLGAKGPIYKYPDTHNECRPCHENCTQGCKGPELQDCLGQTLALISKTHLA
# T2: human HER4 (hHER4, ACRO Biosystems Inc., Cat #: ER4-H5221), recombinant His-tagged (human, UniProt Q15303 26-649)
# T2 construct: Bought protein; not shown: His tag
# T2 sequence (looked up): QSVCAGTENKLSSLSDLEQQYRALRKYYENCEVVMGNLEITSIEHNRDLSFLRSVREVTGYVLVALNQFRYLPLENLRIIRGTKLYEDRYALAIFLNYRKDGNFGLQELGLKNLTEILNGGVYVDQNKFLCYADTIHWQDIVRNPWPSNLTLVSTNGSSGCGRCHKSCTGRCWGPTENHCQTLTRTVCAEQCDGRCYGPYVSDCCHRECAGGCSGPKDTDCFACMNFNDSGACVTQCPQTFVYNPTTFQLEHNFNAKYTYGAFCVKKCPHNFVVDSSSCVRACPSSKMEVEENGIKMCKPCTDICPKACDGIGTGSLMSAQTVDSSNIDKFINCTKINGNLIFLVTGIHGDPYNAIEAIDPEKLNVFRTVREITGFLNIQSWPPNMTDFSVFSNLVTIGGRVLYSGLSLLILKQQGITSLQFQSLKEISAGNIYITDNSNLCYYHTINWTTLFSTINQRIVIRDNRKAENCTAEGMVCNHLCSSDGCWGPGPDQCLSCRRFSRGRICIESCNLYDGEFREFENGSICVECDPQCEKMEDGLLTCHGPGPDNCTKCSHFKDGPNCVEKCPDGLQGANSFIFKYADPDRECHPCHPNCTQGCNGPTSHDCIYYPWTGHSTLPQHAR
# Columns and labels:
# Experiment in all cases: SPR, Ab captured on Protein A
# [1] = target: T1, His-tagged dog HER3 protein (dHER3, SEQ …)
# Procedure: (§1) Purified anti-HER3 antibodies was captured on the Protein A chip (Series S Sensor Chip Protein A) for the detection. […] For ISO control, an antibody targeting an irrelevant target protein was used. The flow rate was 30 μL/min, the binding and dissociation time were set to 180 s and 400 s, respectively. The chip was regenerated after the last injection of each titration with a glycine solution (pH 2.0) at 30 μL/min for 30 seconds.
# (§2) As a person of ordinary skill in the art would understand, the same method with appropriate adjustments for parameters (e.g., antibody concentration) was performed for each tested antibody.
# [2] = target: T3, His-tagged human HER3 protein (hHER3, ACRO Biosystems Inc., Cat #: ER3-H5223) (human, UniProt P21860 20-643)
# T3 construct: Bought protein; also called hHER3-His; not shown: His tag
# Procedure: as §1, §2
# [3] = target: T4, His-tagged monkey HER3 protein (fasHER3, Sino Biological, Inc., Cat #: 90043-K08H) (monkey)
# T4 construct: Bought protein
# Procedure: as §1, §2
# [4] = target: T2, human HER4 (hHER4, ACRO Biosystems …)
# Procedure: The cross binding activities of anti-HER3 antibodies to HER family proteins were determined by surface plasmon resonance (SPR) using Biacore (Biacore, INC, Piscataway N.J.) 8K biosensor equipped with pre-immobilized Protein A sensor chips.
# Purified anti-HER3 antibodies were diluted to 2 μg/mL and then injected into the Biacore 8K biosensor at 10 μL/min for about 50 seconds to achieve a desired protein density (e.g., about 200 response units (RU)). […] The association phase lasted for 180 s and the dissociation phase lasted 400 s followed by a regeneration step with Glycine (pH 2.0, 30 μL/min for 30 seconds). For isotype control (ISO), an antibody targeting an irrelevant target protein was used.
Kd [1],koff [1],kon [1],Kd [2],koff [2],kon [2],Kd [3],koff [3],kon [3],binding result [4],Binder
33.4 nM,0.000418 s⁻¹,12500 M⁻¹ s⁻¹,30 nM,0.000637 s⁻¹,21200 M⁻¹ s⁻¹,31.7 nM,0.000582 s⁻¹,18400 M⁻¹ s⁻¹,no binding (tested: 400 nM),"anti-HER3 antibody 1C5 (antibody, V domains shown, common light chain) VH: QVQLVESGGGVVQPGKSLRLSCAASGFTFSRSGMHWVRQAPGKGLEWVALISFDGSNKYYADSVKGRFTISRDNSKNTLNLQMNSLRAEDTAVYYCAKGGFGVVIYDAFDIWGHGTMVTVSS VL: not shown"
146 nM,0.00809 s⁻¹,55500 M⁻¹ s⁻¹,34.8 nM,0.0091 s⁻¹,261000 M⁻¹ s⁻¹,50.9 nM,0.00834 s⁻¹,164000 M⁻¹ s⁻¹,no binding (tested: 400 nM),"anti-HER3 antibody 3G6 (antibody, V domains shown, common light chain) VH: QVQLVQSGPVLVKPTETLTLTCTVSGFSLSNIRMGVSWIRQPPGKALEWLAHIFSNDDKSYSTSLKSRLTISKDTSKSQVVLTMTNVDPVDTATYYCTRMRYSGGPFDYWGQGTLVTVSS VL: not shown"
50.4 nM,0.00288 s⁻¹,57100 M⁻¹ s⁻¹,11.5 nM,0.00319 s⁻¹,277000 M⁻¹ s⁻¹,19.1 nM,0.00289 s⁻¹,152000 M⁻¹ s⁻¹,no binding (tested: 400 nM),"anti-HER3 antibody 3E1 (antibody, V domains shown, common light chain) VH: EVQLVQSGPVLAKPTETLTLTCTVSGFSLSNIRMGVSWIRQPPGKALEWLAHIFSNDDKSYSPSLKNRLTISKDTSKSQVVLTMTTMDPMDTATYYCTRMKYSGGPFDYWGQGTLVTVSS VL: not shown"
61.8 nM,0.00223 s⁻¹,36100 M⁻¹ s⁻¹,13.3 nM,0.00239 s⁻¹,179000 M⁻¹ s⁻¹,22.3 nM,0.00224 s⁻¹,100000 M⁻¹ s⁻¹,no binding (tested: 400 nM),"anti-HER3 antibody 1B2 (antibody, V domains shown, common light chain) VH: QVQLVQSGPVLVKPTETLTLTCTVSTFSLSNARMGVSWIRQPPGKALEWLAHIFSNDDKSYSPSLKSRLTISKDTSKTQVVLTMTNMDPVDTATYYCSRMRYSGGPFDYWGQGSLVTVSS VL: not shown"
